The record followed here is patent publication US20240034801A1 (BEIJING HANMI PHARMACEUTICAL, published 2024).

The target in experiment [1] is T1, recombinant human PD-L1 (Sino Biological Inc., catalog number 100 84-H08H) (human, UniProt Q9NZQ7 19-239).
T1 construct: Bought protein coated on the ELISA plate
Put plainly: ELISA, recombinant human PD-L1 coated (FIG. 8A). On the procedure:
(§1) The detailed process is as follows: a 96-well high-adsorption ELISA plate (Costar, catalog number 42592) was coated with 1 μg/mL recombinant human PD-L1 (Sino Biological Inc., catalog number 100 84-H08H) or human 4-1BB (Sino Biological Inc., catalog number 10041-H08H) at 100 μL per well using carbonate buffer solution, pH=9.6 at 4° C. overnight. The plate was wash 5 times with PBST, and then blocked using PBST with 1% BSA 300 μL/well and incubated at 25° C. for 1 hour, and then washed 5 times with PBST. The heterodimeric antibody samples serially diluted in PBST with 1% BSA and the control were added, 100 μL per well and incubated at 25° C. for 1 hour. The plate was washed 5 times with PBST. The horseradish peroxidase-labeled anti-human IgG antibody (Chemicon, catalog number AP309P) diluted 1:10000 in PBST with 1% BSA was then added, 100 μL per well, and incubated at 25° C. for 1 hour. The plate was […] with PBST. The colorimetric substrate TMB was added, 100 μL/well, and developed at room temperature for 10 minutes. 1 M H₂SO₄, was added, 100 μL/well, to stop the development. The absorbance at 450 nm was read on a microplate reader.
(In general: ELISA stands for enzyme-linked immunosorbent assay.)

Experiment [2] concerns the target T2, recombinant human 4-1BB (Sino Biological Inc., catalog number 10041-H08H) (human, UniProt Q07011 24-186).
T2 construct: Bought protein coated on the ELISA plate
Briefly: ELISA, human 4-1BB coated (FIG. 8B; assay format inferred from the order of the methods). On the procedure:
as §1

T1 sequence (Q9NZQ7 19-239 limits assumed): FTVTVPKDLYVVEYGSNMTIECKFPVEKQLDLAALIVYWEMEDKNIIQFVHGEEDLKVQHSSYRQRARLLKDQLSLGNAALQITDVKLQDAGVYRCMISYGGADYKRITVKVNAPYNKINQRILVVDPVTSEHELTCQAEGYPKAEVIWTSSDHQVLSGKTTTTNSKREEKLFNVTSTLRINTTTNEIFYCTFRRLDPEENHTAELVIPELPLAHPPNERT

B1: anti-PD-L1/anti-4-1BB heterodimeric antibody BH3120h (bispecific antibody, human IgG1, kappa, N297A)
heavy 1: not shown
light 1: DIQMTQSPSSLSASVGDRVTITCKASQDVHTAVAWIQQKPGKSPKLLIYSASNRYTGVPSRFSGSGSGTDFTFTISSLQPEDIATYYCQQHYITPLTFGQGTKLEIKRTVAAPSVFIFPPSDEQLKSGTASVVCLLNNFYPREAKVQWKVDNALQSGNSQESVTEQDSKDSTYSLSSTLTLSKADYEKHKVYACEVTHQGLSSPVTKSFNRGEC
heavy 2: QVQLVQSGAEVKKPGSSVKVSCKASGYTFTSYWINWVRQAPGQGLEWMGNIYPSDSYTNYNQKFKDRVTITADKSTSTAYMELSSLRSEDTAVYYCARLYYGSSPFDYWGQGTTVTVSSASTKGPSVFPLAPSSKSTSGGTAALGCLVKDYFPEPVTVSWNSGALTSGVHTFPAVLQSSGLYSLSSVVTVPSSSLGTQTYICNVNHKPSNTKVDKKVEPKSCDKTHTCPPCPAPELLGGPSVFLFPPKPKDTLMISRTPEVTCVVVDVSHEDPEVKFNWYVDGVEVHNAKTKPREEQYASTYRVVSVLTVLHQDWLNGKEYKCKVSNKALPAPIEKTISKAKGQPREPQVYTEPPSRDELTKNQVSLTCLVKGFYPSDIAVEWESNGQPENNYKTTPPVLDSDGSFFLLSVLTVDKSRWQQGNVFSCSVMHEALHNHYTQKSLSLSPGK
light 2: not shown
notes: also called anti-PD-L1/anti-4-1BB bispecific antibody; anti-PD-L1/anti-4-1BB heterodimeric antibody molecule
Consider B1, for which the binding result in experiment [1] and in experiment [2] was “binds” each time.
